The source of these data is patent publication US20140322163A1.

The assay concerns the target HIV-1 Env-pseudoviruses (neutralization panels). Kind of assay: cell-based or functional assay.

Numbering of substitutions follows the chain as printed. Names and notes keep the numbering of the source.

B1: VRC07 G54H heavy chain complemented with VRC01 light chain (antibody, V domains shown)
VH: QVRLSQSGGQMKKPGDSMRISCRASGYEFINCPINWIRLAPGKRPEWMGWMKPRHGAVSYARQLQGRVTMTRDMYSETAFLELRSLTSDDTAVYFCTRGKYCTARDYYNWDFEHWGQGTPVTVSS
VL: EIVLTQSPGTLSLSPGETAIISCRTSQYGSLAWYQQRPGQAPRLVIYSGSTRAAGIPDRFSGSRWGPDYNLTISNLESGDFGVYYCQQYEFFGQGTKVQVDI
Turning to B1, the fold improvement of neutralization over wild type VRC07 (IC50), six-virus panel, TZM-bl was determined as 2.3 fold; the fold improvement of neutralization over wild type VRC07 (IC80), six-virus panel, TZM-bl is 2.5 fold; the fold increase of neutralization over VRC01 came out at 7 fold; the fold increase of neutralization over VRC07 stood at 2.5 fold. In addition, the fold increase of neutralization potency compared to VRC07 heavy chain with VRC01 light chain was greater than 2 fold.

B2: VRC07 G54W heavy chain complemented with VRC01 light chain (antibody, V domains shown)
VH: B1 VH with H55W
VL: B1 VL
B2 displayed a fold increase of neutralization potency over VRC01 of 13 fold; a fold increase of neutralization potency over VRC07 of 4.8 fold; a neutralization potency relative to VRC07, panel of 7-12 HIVs greater than 2 fold; a neutralization potency relative to mature VRC01, panel of 7-12 HIVs greater than 8 fold.
